{
  "source": "patent US20240084286A1",
  "about": "“METHODS AND COMPOSITIONS FOR INCREASING THE CONCENTRATION OF CELL FREE DNA” (The Broad Institute, Inc., priority 2021, published 2024)",
  "molecules": {"B1": {"name": "Sso7d: Small archaeal histone-like DNA-binding protein from Sulfolobus solfataricus, SEQ ID NO: 3 (protein, listed as Saccharolobus solfataricus)", "chain": "MATVKFKYKGEEKEVDISKIKKVWRVGKMISFTYDEGGGKTGRGAVSEKDAPKELLQMLEKQKK"}},
  "key": {"DNase I": {"test_system": "DNase I", "test": "Fluorophore-quencher dsDNA nuclease protection fluorescence assay", "type": "biochemical", "excerpt": "FIGS. 8A-8B present the protection of dsDNA from nuclease digestion by various dsDNA binders. FIG. 8A presents a fluorescence assay measuring nuclease activity in digestion of dsDNA, which is diminished in presence of dsDNA binders.\nFIGS. 28A-28E: FIG. 28A presents an experimental workflow for testing the effect of a DNA binding agent on clearance and degradation of cfDNA. A DNA-binding monoclonal antibody (mAb) is combined with recombinant nucleosome core particles (NCPs) consisting of a human histone octamer complexed with 20 ng of the Widom601 double-stranded DNA (dsDNA) oligonucleotide. […] Levels of Widom601 were quantified via Taqman qPCR. […]\nThe ability of DBP's—both known proteins and novel ones generated above—to protect dsDNA from nuclease digestion using a previously-established plate-based fluorescence assay was evaluated Known DBP's that can be tested included anti-dsDNA antibodies (some commercially available, e.g. Abcam ab27156),^20,21 members of the protamine family of DBP's, 22 and a family of small DNA-binding archaeal proteins including Sso7d.^23-25 A commercially available dsDNA probe conjugated to a HEX fluorophore and a quencher was incubated with recombinant DNase 1 and DNase 1L3 (the predominant nucleases in circulation). […]"}, "DNase": {"test_system": "DNase", "test": "Nuclease digestion time-series / electropherogram of dsDNA", "type": "biochemical", "conditions": "dsDNA oligonucleotide"}},
  "note": "“Also recorded” adds a separate entry of the source.",
  "data": [
    {"molecule": "protamine sulfate [reference compound]", "values": [
      {"measurement": "protection of dsDNA from nuclease digestion", "setting": "DNase I", "result": "protect it from digestion by nucleases"}
    ]},
    {"molecule": "B1", "values": [
      {"measurement": "protection of dsDNA, digestion time-series", "setting": "DNase", "result": "dsDNA protection"},
      {"measurement": "protection of dsDNA from nuclease digestion", "setting": "DNase I", "result": "protect it from digestion by nucleases; also recorded: protect dsDNA from DNase I digestion"}
    ]}
  ]
}
